Data taken from patent US20240343798A1 (GV20 THERAPEUTICS, published 2024).

T1: IGSF8 protein without D1 domain (UniProt Q969P0 150-579, limits assumed)
T1 construct: domain: D2-D4 (without D1); also called D24; D2-4
T1 sequence (looked up): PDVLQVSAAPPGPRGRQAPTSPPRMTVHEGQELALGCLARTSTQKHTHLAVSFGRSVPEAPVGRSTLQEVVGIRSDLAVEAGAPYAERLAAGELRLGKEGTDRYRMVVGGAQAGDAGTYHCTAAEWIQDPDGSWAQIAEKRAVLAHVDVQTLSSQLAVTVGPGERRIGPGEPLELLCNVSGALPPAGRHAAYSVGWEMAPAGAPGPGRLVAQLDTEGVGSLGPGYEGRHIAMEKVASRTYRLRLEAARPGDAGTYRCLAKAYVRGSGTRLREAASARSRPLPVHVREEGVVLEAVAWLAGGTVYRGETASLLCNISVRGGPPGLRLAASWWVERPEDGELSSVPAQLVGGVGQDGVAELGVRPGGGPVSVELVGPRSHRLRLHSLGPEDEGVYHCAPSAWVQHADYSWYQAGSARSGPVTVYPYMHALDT

T2: human IGSF8 expressed on the cell surface (human, UniProt Q969P0 28-613)
T2 construct: whole, on cells; Forced expression on CT26, MC38 or K562 cells; endogenous on A431 cells; also called full-length IGSF8
T2 sequence (looked up): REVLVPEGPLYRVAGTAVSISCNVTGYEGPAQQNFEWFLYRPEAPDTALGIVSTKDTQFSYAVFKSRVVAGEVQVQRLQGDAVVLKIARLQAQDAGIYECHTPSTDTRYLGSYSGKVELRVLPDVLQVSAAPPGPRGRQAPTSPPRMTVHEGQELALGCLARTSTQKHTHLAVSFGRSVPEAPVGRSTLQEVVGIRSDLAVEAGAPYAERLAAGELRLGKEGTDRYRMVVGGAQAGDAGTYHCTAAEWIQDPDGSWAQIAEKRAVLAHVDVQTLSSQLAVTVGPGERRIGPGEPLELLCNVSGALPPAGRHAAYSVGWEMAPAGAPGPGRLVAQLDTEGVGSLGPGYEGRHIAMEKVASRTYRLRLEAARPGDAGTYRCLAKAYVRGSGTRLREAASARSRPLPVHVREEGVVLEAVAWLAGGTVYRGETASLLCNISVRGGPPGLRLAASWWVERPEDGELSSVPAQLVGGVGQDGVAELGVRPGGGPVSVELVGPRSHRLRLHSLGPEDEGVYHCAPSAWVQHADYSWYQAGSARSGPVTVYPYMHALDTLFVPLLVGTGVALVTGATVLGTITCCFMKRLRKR

T3: recombinant human IGSF8 extracellular domain tagged by a human Fc region (IGSF8-hFc) (human, UniProt Q969P0 28-579)
T3 construct: extracellular domain; also called IGSF8-Fc; IGSF8 hFc fusion protein; not shown: human Fc region
T3 sequence (looked up): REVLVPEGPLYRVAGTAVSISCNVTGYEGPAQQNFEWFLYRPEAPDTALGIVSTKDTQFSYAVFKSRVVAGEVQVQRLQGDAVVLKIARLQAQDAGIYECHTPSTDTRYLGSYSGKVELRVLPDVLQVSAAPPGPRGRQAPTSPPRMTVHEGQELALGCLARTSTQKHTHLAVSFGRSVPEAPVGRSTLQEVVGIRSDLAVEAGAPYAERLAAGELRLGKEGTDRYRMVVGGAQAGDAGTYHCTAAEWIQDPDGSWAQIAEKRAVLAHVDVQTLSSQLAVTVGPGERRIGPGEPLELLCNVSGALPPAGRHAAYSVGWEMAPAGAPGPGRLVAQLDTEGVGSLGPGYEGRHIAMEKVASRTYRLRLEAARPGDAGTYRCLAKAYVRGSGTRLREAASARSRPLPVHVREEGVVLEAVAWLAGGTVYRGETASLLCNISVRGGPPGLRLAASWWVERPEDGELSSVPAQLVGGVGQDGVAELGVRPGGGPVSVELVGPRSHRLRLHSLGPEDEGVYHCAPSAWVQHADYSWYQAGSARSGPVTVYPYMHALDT

B1: Antibody C30 (B34) (antibody, human IgG1, V domains shown)
VH: EVQLLESGGGLVQPGGSLRLSCAASGFTFSSYAMSWVRQAPGKGLEWVSGITGSGGSTYYADSVKGRFTISRDNSKNTLYLQMNSLRAEDTAVYYCARGRQVDKWGQGTLVTVSS
VL: DIMLTQSPSSLSASVGDRVTITCRASQSIHNYLNWIQQTPGKAPKLLVFAASTLQRGVPPRYSGRGSGTEFTLTISSLQPEDFATYYCQQSYTTPLTFGGGTKVEIRR
notes: Fully human, expressed in CHO cells; also called mAb-B34 (C30)
B2: KLRC1/KLRD1 heterodimeric receptor (receptor)
chain 1: not shown
chain 2: MAVFKTTLWRLISGTLGIICLSLMSTLGILLKNSFTKLSIEPAFTPGPNIELQKDSDCCSCQEKWVGYRCNCYFISSEQKTWNESRHLCASQKSSLLQLQNTDELDFMSSSQQFYWIGLSYSEEHTAWLWENGSALSQYLFPSFETFNTKNCIAYNPNGNALDESCEDKNRYICKQQLI
notes: whole, on cells; CT26 cells co-transduced with both lentiviral constructs; also called KLRC1&D1 heterodimer; KLRC1/D1
B3: KIR3DL1 D3 construct (receptor, human, UniProt P43629 222-316, looked up)
chain: EKPSLSAQPGPKVQAGESVTLSCSSRSSYDMYHLSREGGAHERRLPAVRKVNRTFQADFPLGPATHGGTYRCFGSFRHSPYEWSDPSDPLLVSVT
notes: domain: D3; On CT26 cells, thy1.1 tag vector; also called D1/D3 construct
B4: D1 domain of IGSF8 protein (ligand, UniProt Q969P0 28-149, looked up)
chain: REVLVPEGPLYRVAGTAVSISCNVTGYEGPAQQNFEWFLYRPEAPDTALGIVSTKDTQFSYAVFKSRVVAGEVQVQRLQGDAVVLKIARLQAQDAGIYECHTPSTDTRYLGSYSGKVELRVL
notes: domain: D1; also called D1 (Ig-V set) ECD of IGSF8
B5: KIR3DL2 D3 construct (receptor, human, UniProt P43630 222-316, looked up)
chain: EKPSLSAQPGPTVQAGENVTLSCSSWSSYDIYHLSREGEAHERRLRAVPKVNRTFQADFPLGPATHGGTYRCFGSFRALPCVWSNSSDPLLVSVT
notes: as for B3

How the values were obtained:
[1] = target: T1, IGSF8 protein without D1 domain; experiment: flow cytometry, CT26 cells expressing IGSF8-D24 (IGSF8 without D1)
[2] = target: T2, human IGSF8 expressed on the cell …; experiment: cell-cell conjugate assay, labelled MC38 and CT26 cells mixed 1:1, flow cytometry
Text: A competition assay (FIG. 23A) was then designed to test whether these seven mAbs block IGSF8 binding to the KIR3DL1/2 or the KLRC1&D1 heterodimer receptors. MC38 cells (a cell line derived from C57BL6 murine colon adenocarcinoma cells from NIH) with forced expression of IGSF8 protein on cell surface by lentiviral delivery of a human IGSF8-expression construct were labeled with CFSE (Carboxyfluorescein succinimidyi ester, Thermo). CT26 cells with forced expression of either KIR3DL1/2 or KLRC1&D1 were labeled with CellTrace Far Red (Thermo). The MC38 cells were then mixed at a 1:1 ratio with the CT26 cells for about an hour at room temperature. The formation of MC38 and CT26 cell/cell conjugates was assessed by flow cytometry.

[3] = target: T3, recombinant human IGSF8 extracellular …; experiment: flow cytometry, IGSF8-hFc on transduced CT26 cells, MFI normalized to Thy1.1 expression
Procedure: (§1) KLRC1 also contains a ITIM motif in its intracellular domain, and was known to be a inhibitory receptor of NK or CD8⁺ T cells as part of a heterodimer with KLRD1 on the cell surface. […] Specifically, 100,000 CT26 cells overexpressing the antigens (KIRs or KLRs) were washed with PBS buffer containing 2% FBS, and incubated with 100 μL IGSF8 recombinant proteins or antibodies (5 μg/mL) for 30 minutes on ice. Cells were then washed twice with wash buffer, and incubated with 100 μL of 1:100 anti-human Fc-PE antibody for 15 minutes on ice. Cells were washed twice with wash buffer and analyzed on a FACS analyzer (CytoFlex, Beckman). In these experiments, the mean fluorescence intensity (MFI) of IGSF8 binding to different CT26 cells were normalized by the expression of different KLRs on CT26 cells using an anti-thy1.1 mAb via flow cytometry.

[4] = target: T3, recombinant human IGSF8 extracellular …; experiment: flow cytometry, IGSF8-hFc on CT26 cells with single-domain KIR3DL1/2 constructs, MFI normalized to Thy1.1
[5] = target: T4, KIR3DL2 (human, UniProt P43630 22-455); experiment: flow cytometry, hFc fusion proteins on transduced CT26 cells, MFI normalized
T4 construct: whole, on cells; On mouse CT26 cells, lentiviral vector with a thy1.1 tag; also called KIR3DL1/2
Procedure: (§2) For this experiment, different human KIR receptors (KIR2DL1, KIR2DL2, KIR2DL3, KIR2DL4, KIR2DL5A, KIR2DL5B, KIR3DL1, KIR3DL2, KIR3DL3) were first cloned into a proprietary lentiviral vector containing a thy1.1 tag (FIG. 17A). Then mouse CT26 cells, were transducted by these lentiviral constructs, and IGSF8 binding was tested with biotin-labelled recombinant IGSF8 hFc fusion protein. The mean fluorescence intensity (MFI) of IGSF8 binding to different CT26 cells were normalized by the expression of different KIRs on CT26 cells using an anti-thy1.1 mAb (Biolegend) via flow cytometry.
as §1

[6] = target: B2; experiment: as above
Procedure: as §2, §1

[7] = target: T5, KIR3DL1 (human, UniProt P43629 22-444); experiment: as above
T5 construct: whole, on cells; On mouse CT26 cells, lentiviral vector with a thy1.1 tag; also called KIR3DL1/2
Procedure: as §2, §1

T4 sequence (P43630 22-455): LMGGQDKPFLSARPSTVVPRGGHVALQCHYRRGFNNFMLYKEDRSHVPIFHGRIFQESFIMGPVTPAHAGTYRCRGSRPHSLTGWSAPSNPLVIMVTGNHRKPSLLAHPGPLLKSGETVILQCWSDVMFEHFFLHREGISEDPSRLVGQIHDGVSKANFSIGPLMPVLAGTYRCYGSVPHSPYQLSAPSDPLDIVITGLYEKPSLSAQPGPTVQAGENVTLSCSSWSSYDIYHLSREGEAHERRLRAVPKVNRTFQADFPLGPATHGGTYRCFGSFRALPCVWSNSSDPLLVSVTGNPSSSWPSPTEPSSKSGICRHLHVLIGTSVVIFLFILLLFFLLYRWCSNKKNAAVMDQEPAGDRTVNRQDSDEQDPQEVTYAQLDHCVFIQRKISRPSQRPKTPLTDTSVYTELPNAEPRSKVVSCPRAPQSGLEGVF
T5 sequence (P43629 22-444): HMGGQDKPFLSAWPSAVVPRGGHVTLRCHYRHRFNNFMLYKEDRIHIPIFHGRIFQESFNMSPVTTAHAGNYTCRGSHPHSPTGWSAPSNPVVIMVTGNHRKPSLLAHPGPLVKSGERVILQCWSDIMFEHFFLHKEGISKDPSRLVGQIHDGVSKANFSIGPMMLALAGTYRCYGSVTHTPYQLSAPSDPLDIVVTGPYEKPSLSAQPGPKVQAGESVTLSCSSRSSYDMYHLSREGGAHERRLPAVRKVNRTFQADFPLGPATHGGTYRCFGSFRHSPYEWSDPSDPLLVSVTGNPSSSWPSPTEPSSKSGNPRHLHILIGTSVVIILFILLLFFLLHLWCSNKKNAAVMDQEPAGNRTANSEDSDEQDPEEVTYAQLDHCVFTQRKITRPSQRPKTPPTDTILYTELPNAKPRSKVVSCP

**Q.** Does B1 bind [1]?
**A.** no binding

**Q.** Does B2 bind [2]?
**A.** binds

**Q.** Does B2 bind [3]?
**A.** binds

**Q.** Does B3 bind [4]?
**A.** no binding

**Q.** Which results are given for B4?
**A.** binding result [5]: binds; binding result [6]: binds; binding result [7]: binds

**Q.** Does B5 bind [4]?
**A.** no binding
